Test results from paper doi:10.1101/2024.09.13.612636 (bioRxiv, 2024).
Where “and” joins values, the source holds several entries; their conditions need not be identical. Equal values may be shown once.

T1: GST-LdPEX3Δ1-42 (L. donovani PEX3 without the N-terminal predicted transmembrane domain, GST-tagged) (Leishmania donovani, UniProt A0A3Q8IW98 43-526)
T1 sequence: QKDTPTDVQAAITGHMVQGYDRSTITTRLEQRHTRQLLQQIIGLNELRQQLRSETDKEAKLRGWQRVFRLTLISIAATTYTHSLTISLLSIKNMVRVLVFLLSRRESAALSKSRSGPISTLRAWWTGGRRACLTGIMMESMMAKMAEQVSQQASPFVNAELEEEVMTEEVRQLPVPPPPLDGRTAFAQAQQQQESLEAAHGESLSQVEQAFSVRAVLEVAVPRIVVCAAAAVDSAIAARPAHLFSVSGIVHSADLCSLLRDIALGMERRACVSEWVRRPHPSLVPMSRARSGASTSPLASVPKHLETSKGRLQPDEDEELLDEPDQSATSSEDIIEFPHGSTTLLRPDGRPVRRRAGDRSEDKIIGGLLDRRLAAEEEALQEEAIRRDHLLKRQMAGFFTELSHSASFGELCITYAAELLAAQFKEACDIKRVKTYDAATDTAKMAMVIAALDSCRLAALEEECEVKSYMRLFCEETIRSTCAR

B1: LdPEX19-His6 (C-terminally His6-tagged full-length L. donovani PEX19, pET21b) (natural protein)
chain: MSDDDLDALLDEAMDMVDEQERKHEEEVRVRDAKLEDDLQKALDEASGTAGGDADMMKMLMSMLGGDSADDASLDSFKKSVMTMVSSLEGEENLGEEDKANLLRVKELMRVMEEEDIDKANDLLEQMKQEGKLPDCNNVGDAEIDEASRRCMEMLQQLSSATQVGHLDPAATPGAASSSSAAPPAAPAGDGAEIPSEVGRATEAMASALISTLADPQFVEPIKLMRDSYGPYMDAHGSELSHEDCERYERQRAKAQEICDLLQNPISGAEDPRLIQLLELMNKYSELGDPPRNLVKYAPKNRKGVEECQ

How the values were obtained:
[1] = molecular target: GST-LdPEX3Δ1-42 (L. donovani PEX3 without the N-terminal predicted transmembrane domain, GST-tagged) (Leishmania donovani); experiment: AlphaScreen or HTRF
[2] = molecular target: T1, GST-LdPEX3Δ1-42 (L. donovani PEX3 …); experiment: AlphaScreen or HTRF
[3] = molecular target: T1, GST-LdPEX3Δ1-42 (L. donovani PEX3 …); experiment: ELISA

Row | Molecule | Kd [1] | Kd [2] | Kd [3]
1 | Tag-free LdPEX19 (from LdPEX19-T-His6 by thrombin cleavage) (natural protein) | 11.9 nM | – | –
2 | B1 | – | 10.4 ± 2.57 nM | 10.6 nM and 10.5 nM
